Experiments:
BRCA2OB [1] = target: T1, BRCA2OB (human, UniProt P51587 2665-3197); assay: smFRET; 0.1 and 1 uM BRCA2OB; EMSA: 10 nM probe, 50 mM Tris-HCl pH 7.5, 100 mM KCl, 2 mM b-ME, 10% glycerol, probe pre-incubated 37 C, gel 4 C (RAD51: +1 mM MgCl2, 2 mM ATP); smFRET: 50 mM Tris-HCl pH 7.9, 100 mM KCl, 20 mM NaCl, 1 mM DTT, 0.1 mg/ml BSA, 9% glycerol, 37 C; settings: protein: recombinant, tags: N-MBP, C-6xHis, label: 3' Cy3, stem 5' Cy5, 3' biotin
T1 sequence: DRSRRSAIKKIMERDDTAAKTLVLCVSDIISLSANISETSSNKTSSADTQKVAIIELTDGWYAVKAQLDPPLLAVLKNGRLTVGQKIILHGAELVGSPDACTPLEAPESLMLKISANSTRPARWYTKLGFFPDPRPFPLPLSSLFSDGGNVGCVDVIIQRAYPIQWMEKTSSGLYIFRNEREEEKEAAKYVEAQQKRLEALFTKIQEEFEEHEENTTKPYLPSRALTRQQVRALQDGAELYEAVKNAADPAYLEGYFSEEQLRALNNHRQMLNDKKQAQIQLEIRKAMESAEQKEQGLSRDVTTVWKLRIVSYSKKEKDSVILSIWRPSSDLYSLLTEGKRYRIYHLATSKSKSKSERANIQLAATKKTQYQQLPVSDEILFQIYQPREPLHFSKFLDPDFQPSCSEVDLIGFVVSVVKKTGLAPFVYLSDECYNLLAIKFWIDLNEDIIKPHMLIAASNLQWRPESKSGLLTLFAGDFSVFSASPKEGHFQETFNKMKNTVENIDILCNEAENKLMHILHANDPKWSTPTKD

POT1OB = target: T2, POT1OB (human, UniProt Q9NUX5 10-278); assay: EMSA; 100 mM KCl; EMSA: 10 nM probe, 50 mM Tris-HCl pH 7.5, 100 mM KCl, 2 mM b-ME, 10% glycerol, probe pre-incubated 37 C, gel 4 C (RAD51: +1 mM MgCl2, 2 mM ATP); smFRET: 50 mM Tris-HCl pH 7.9, 100 mM KCl, 20 mM NaCl, 1 mM DTT, 0.1 mg/ml BSA, 9% glycerol, 37 C; settings: protein: recombinant; tags: N-MBP, C-6xHis; label: 5' 32P; intramolecular G4
T2 sequence: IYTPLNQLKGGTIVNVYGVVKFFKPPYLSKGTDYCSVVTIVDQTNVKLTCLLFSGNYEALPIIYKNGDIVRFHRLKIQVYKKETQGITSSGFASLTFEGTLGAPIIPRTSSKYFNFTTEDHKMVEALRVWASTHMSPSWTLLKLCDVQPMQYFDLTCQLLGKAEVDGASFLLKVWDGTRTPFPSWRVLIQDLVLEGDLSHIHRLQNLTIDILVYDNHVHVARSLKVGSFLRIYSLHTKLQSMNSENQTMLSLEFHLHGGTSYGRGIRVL

BRCA2OB [2] = target: T1, BRCA2OB; assay: EMSA; 100 mM KCl; rough estimate, max protein 1 uM; EMSA: 10 nM probe, 50 mM Tris-HCl pH 7.5, 100 mM KCl, 2 mM b-ME, 10% glycerol, probe pre-incubated 37 C, gel 4 C (RAD51: +1 mM MgCl2, 2 mM ATP); smFRET: 50 mM Tris-HCl pH 7.9, 100 mM KCl, 20 mM NaCl, 1 mM DTT, 0.1 mg/ml BSA, 9% glycerol, 37 C; settings: protein: recombinant; tags: N-MBP, C-6xHis; label: 5' 32P; intramolecular G4
BRCA2OB [3] = target: T1, BRCA2OB; assay: EMSA; 100 mM KCl; EMSA: 10 nM probe, 50 mM Tris-HCl pH 7.5, 100 mM KCl, 2 mM b-ME, 10% glycerol, probe pre-incubated 37 C, gel 4 C (RAD51: +1 mM MgCl2, 2 mM ATP); smFRET: 50 mM Tris-HCl pH 7.9, 100 mM KCl, 20 mM NaCl, 1 mM DTT, 0.1 mg/ml BSA, 9% glycerol, 37 C; settings: protein: recombinant; tags: N-MBP, C-6xHis; label: 5' 32P; intramolecular G4
BRCA2OB [4] = target: T1, BRCA2OB; assay: as above; settings: protein: recombinant, tags: N-MBP, C-6xHis, label: 5' 32P
GST-B2-9 = target: T3, GST-B2-9 (human, UniProt P51587 3189-3418); assay: EMSA; 150 mM KCl; EMSA: 10 nM probe, 50 mM Tris-HCl pH 7.5, 100 mM KCl, 2 mM b-ME, 10% glycerol, probe pre-incubated 37 C, gel 4 C (RAD51: +1 mM MgCl2, 2 mM ATP); smFRET: 50 mM Tris-HCl pH 7.9, 100 mM KCl, 20 mM NaCl, 1 mM DTT, 0.1 mg/ml BSA, 9% glycerol, 37 C; settings: protein: recombinant; tags: GST; label: 32P
T3 sequence: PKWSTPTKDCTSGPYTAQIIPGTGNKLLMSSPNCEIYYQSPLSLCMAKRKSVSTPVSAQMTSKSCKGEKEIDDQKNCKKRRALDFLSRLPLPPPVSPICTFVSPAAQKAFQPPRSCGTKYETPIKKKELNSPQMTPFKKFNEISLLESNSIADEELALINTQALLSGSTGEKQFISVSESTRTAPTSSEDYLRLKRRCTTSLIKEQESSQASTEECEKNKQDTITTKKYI

GST-B2-8 = target: T4, GST-B2-8 (human, UniProt P51587 2780-3197); assay: as above; settings: protein: recombinant; tags: GST; label: 32P
T4 sequence: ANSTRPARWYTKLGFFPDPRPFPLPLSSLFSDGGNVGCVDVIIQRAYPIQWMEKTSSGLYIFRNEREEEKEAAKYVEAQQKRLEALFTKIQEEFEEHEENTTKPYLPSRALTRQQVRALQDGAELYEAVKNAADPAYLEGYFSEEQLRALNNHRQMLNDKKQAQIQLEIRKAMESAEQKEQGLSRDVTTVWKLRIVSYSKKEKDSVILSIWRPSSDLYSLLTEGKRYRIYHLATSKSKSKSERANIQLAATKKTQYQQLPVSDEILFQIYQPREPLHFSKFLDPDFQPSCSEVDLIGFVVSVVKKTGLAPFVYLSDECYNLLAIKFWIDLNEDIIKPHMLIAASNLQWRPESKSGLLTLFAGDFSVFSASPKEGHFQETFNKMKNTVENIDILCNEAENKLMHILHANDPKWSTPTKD

GST-B2-7 = target: T5, GST-B2-7 (human, UniProt P51587 2438-2824); assay: as above; settings: protein: recombinant; tags: GST; label: 32P
T5 sequence: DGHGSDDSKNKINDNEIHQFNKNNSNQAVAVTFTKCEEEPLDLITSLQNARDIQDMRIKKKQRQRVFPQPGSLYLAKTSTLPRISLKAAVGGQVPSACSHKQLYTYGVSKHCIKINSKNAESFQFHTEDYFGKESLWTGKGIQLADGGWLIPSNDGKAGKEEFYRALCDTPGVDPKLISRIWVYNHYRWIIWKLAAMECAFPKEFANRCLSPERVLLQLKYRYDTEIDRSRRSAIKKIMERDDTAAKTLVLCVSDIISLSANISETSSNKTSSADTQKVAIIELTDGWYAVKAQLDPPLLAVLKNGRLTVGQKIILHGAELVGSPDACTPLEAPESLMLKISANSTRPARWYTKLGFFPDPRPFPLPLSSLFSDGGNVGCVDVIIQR

BRCA2OB [5] = target: T1, BRCA2OB; assay: EMSA; EMSA: 10 nM probe, 50 mM Tris-HCl pH 7.5, 100 mM KCl, 2 mM b-ME, 10% glycerol, probe pre-incubated 37 C, gel 4 C (RAD51: +1 mM MgCl2, 2 mM ATP); smFRET: 50 mM Tris-HCl pH 7.9, 100 mM KCl, 20 mM NaCl, 1 mM DTT, 0.1 mg/ml BSA, 9% glycerol, 37 C; settings: protein: recombinant; tags: N-MBP, C-6xHis; label: 5' 32P
BRCA2OB [6] = target: T1, BRCA2OB; assay: smFRET; 1 uM BRCA2OB; EMSA: 10 nM probe, 50 mM Tris-HCl pH 7.5, 100 mM KCl, 2 mM b-ME, 10% glycerol, probe pre-incubated 37 C, gel 4 C (RAD51: +1 mM MgCl2, 2 mM ATP); smFRET: 50 mM Tris-HCl pH 7.9, 100 mM KCl, 20 mM NaCl, 1 mM DTT, 0.1 mg/ml BSA, 9% glycerol, 37 C; settings: protein: recombinant; tags: N-MBP, C-6xHis; label: 3' Cy3; stem 5' Cy5, 3' biotin
[7] = 29 bp stem with 3' G4 overhang 30 nt

B1: TelG5TT smFRET (mixed)
DNA 1: GCGTGGCACCGGTAATAGGAGATAGGAGAGGTTTGGGTTGGGTTGGGTTGGGTTTG
DNA 2: TCTCCTATCTCCTATTACCGGTGCCACGC
modifications: 3' amino; stem 5' amino
B1: binds (BRCA2OB [1]; 29 bp stem with 3' G4 overhang 27 nt).

GGTTGGGGTTGGGGTTGGGGTTGGGGTTGG (structured_DNA) [TelG5T2G4] was tested, and the binding result (POT1OB) was “no binding”, the Kd (BRCA2OB [2]) was 1400 nM and the binding signal (BRCA2OB [3]) was ~3 fold vs TelG5.

CTAACCCTAACCCTAACCCTAACCCTAACC (ssDNA) [TelC5]: no binding (BRCA2OB [4]).

GGTTAGGGTTAGGGTTAGGGTTAGGGTTAGGGTTAG (structured_DNA) [TelG6]: binds (BRCA2OB [4]; intramolecular G4).

GGTTAGGGTTAGGGTTAG (ssDNA) [TelG3]: no binding (BRCA2OB [4]).

GAATTCACCCCTAACCCTAACCCTAACCCTAACCGCGGGC (ssDNA) [telomeric C-rich strand (40 nt)]: no binding (GST-B2-9); no binding (GST-B2-8); no binding (GST-B2-7).

GCTAGGGCTAGGGCTAGGGCTAGGGCTAG (structured_DNA) [TelG-CTA]: no binding (BRCA2OB [5]).

GCCCGCGGTTAGGGTTAGGGTTAGGGTTAGGGGTGAATTC (ssDNA) [telomeric G-rich strand (40 nt)]: no binding (GST-B2-9); binds (GST-B2-8); no binding (GST-B2-7).

AGTTAGAGTTAGAGTTAGAGTTAGAGTTAG (ssDNA) [TelG5GAG]: no binding (BRCA2OB [4]; unfolded).

B2: TelG5:TelC5 (dsDNA)
DNA 1: GGTTAGGGTTAGGGTTAGGGTTAGGGTTAG
DNA 2: CTAACCCTAACCCTAACCCTAACCCTAACC
B2: no binding (BRCA2OB [4]; blunt).

B3: TelG5 smFRET (mixed)
DNA 1: GCGTGGCACCGGTAATAGGAGATAGGAGAGGTTAGGGTTAGGGTTAGGGTTAGGGTTAG
DNA 2: TCTCCTATCTCCTATTACCGGTGCCACGC
modifications: 3' amino; stem 5' amino
B3: binds (BRCA2OB [1]; [7]).

B4: TelG5TTT smFRET (mixed)
DNA 1: GCGTGGCACCGGTAATAGGAGATAGGAGAGGTTTGGGTTTGGGTTTGGGTTTGGGTTTG
DNA 2: TCTCCTATCTCCTATTACCGGTGCCACGC
modifications: 3' amino; stem 5' amino
B4: binds (BRCA2OB [1]; [7]).

B5: TelG5CTA smFRET (mixed)
DNA 1: GCGTGGCACCGGTAATAGGAGATAGGAGAGGCTAGGGCTAGGGCTAGGGCTAGGGCTAG
DNA 2: TCTCCTATCTCCTATTACCGGTGCCACGC
modifications: 3' amino; stem 5' amino
B5: no binding (BRCA2OB [6]).
